Target: the molecule itself
Assay: EPR-DEER; Q-band (34 GHz) four-pulse DEER at 50 K on MTSL-labelled XIAP; dimer concentration 15 uM; 20 mM Tris pH 7.4

B1: XIAP C202R1 (XIAP C12A, C213G, C351S labelled with MTSL nitroxide on Cys202) (natural protein, human, UniProt P98170 1-497, looked up)
chain: MTFNSFEGSKTAVPADINKEEEFVEEFNRLKTFANFPSGSPVSASTLARAGFLYTGEGDTVRCFSCHAAVDRWQYGDSAVGRHRKVSPNCRFINGFYLENSATQSTNSGIQNGQYKVENYLGSRDHFALDRPSETHADYLLRTGQVVDISDTIYPRNPAMYSEEARLKSFQNWPDYAHLTPRELASAGLYYTGIGDQVQCFCCGGKLKNWEPGDRAWSEHRRHFPNCFFVLGRNLNIRSESDAVSSDRNFPNSTNLPRNPSMADYEARIFTFGTWIYSVNKEQLARAGFYALGEGDKVKCFHCGGGLTDWKPSEDPWEQHAKWYPGCKYLLEQKGQEYINNIHLTHSLEESLVRTTEKTPSLTRRIDDTIFQNPMVQEAIRMGFSFKDIKKIMEEKIQISGSNYKSLEVLVADLVNAQKDSMQDESSQTSLQKEISTEEQLRRLQEEKLCKICMDRNIAIVFVPCGHLVTCKQCAEAVDKCPMCYTVITFKQKIFMS
modifications: MTSL nitroxide spin label on Cys202
notes: Mutations were introduced into the WT XIAP gene; also called XIAP C202-MTSL
Does B1 bind?
Result: binds
